From publication PMC7116727

Target: S2 component of the furin-cleaved SARS-CoV-2 spike ectodomain ('2P' mutant) (SARS-CoV-2) (UniProt P0DTC2)
Test: cryo-EM structure

S2 component of the furin-cleaved SARS-CoV-2 spike ectodomain ('2P' mutant) (from UniProt P0DTC2) (domain or fragment)
stoichiometry N: 3
